B1: Huntingtin-associated protein 1 (Homo sapiens), P54257-2 (parent)
chain: MRPKRLGRCCAGSRLGPGDPAALTCAPSPSASPAPEPSAQPQARGTGQRVGSRATSGSQFLSEARTGARPASEAGAKAGARRPSAFSAIQGDVRSMPDNSDAPWTRFVFQGPFGSRATGRGTGKAAGIWKTPAAYVGRRPGVSGPERAAFIRELEEALCPNLPPPVKKITQEDVKVMLYLLEELLPPVWESVTYGMVLQRERDLNTAARIGQSLVKQNSVLMEENSKLEALLGSAKEEILYLRHQVNLRDELLQLYSDSDEEDEDEEEEEEEKEAEEEQEEEEAEEDLQCAHPCDAPKLISQEALLHQHHCPQLEALQEKLRLLEEENHQLREEASQLDTLEDEEQMLILECVEQFSEASQQMAELSEVLVLRLENYERQQQEVARLQAQVLKLQQRCRMYGAETEKLQKQLASEKEIQMQLQEEETLPGFQETLAEELRTSLRRMISDPVYFMERNYEMPRGDTSSLRYDFRYSEDREQVRGFEAEEGLMLAADIMRGEDFTPAEEFVPQEELGAAKKVPAEEGVMEEAELVSEETEGWEEVELELDEATRMNVVTSALEASGLGPSHLDMNYVLQQLANWQDAHYRRQLRWKMLQKGECPHGALPAASRTSCRSSCR

Variants of: B1
Conditions: with hd_human HTT

**Q.** T441M was tested. Which “effect of a mutation on the interaction” value did it give?
**A.** The value was “increasing interaction”.
